# From paper PMC10960945, “A nanobody inhibitor of Fascin-1 actin-bundling activity and filopodia formation” (Open Biology, 2024)
# Where a chain is given by its changes, count along the chain named.
# B1: Nb 3B9 (VHH)
# VHH: QVQLQESGGGLVQAGGSLRLSCAASGRTFSSYAMGWFRQAPGMEREFVAAIPWIGGNTYYADSVKGRFTISRDNAKTLYLLMNSLKPEDTALYYCAARAHSYVLSTSPSHYDYWGQGTQVTVSS
# notes: Eluted in SEC as a dimer and a monomer population; the two were kept separate in the later assays and counted as two of the 14 Nbs; not shown: His-tag, C-terminal, kept
# B2: Nb 3G9 (VHH)
# VHH: B1 VHH with G16D, G26R, F29S, S30N, S31T, M43K
# notes: as for B1
# B3: Nb 3H7 (VHH)
# VHH: QVQLQESGGGLVQAGGSLRLSCAGPVRAFNTYAMGWFRQAPGKEREFVAAITRSGDVTYYSNSVKGRFTISRENAKNTVYLHMNSLKPEDTAVYSCAADAQLTPLNPRAQEYAYWGQGTQVTVSS
# notes: also called nanobody 3H7; not shown: His-tag, C-terminal, kept
# B4: Nb 3G11 (VHH)
# VHH: QVQLQESGGGLVQAGGSLRLSCAVSGRLNSRYSMGWFRQAPGKEREFVAVVKWTTGGTMYADSVKGRFTISRDNRKNTVYLQMNTLKPEDTALYYCASRPDYSNSYYYTTVSDYSDWGQGTQVTVSS
# notes: also called nanobody 3G11; not shown: His-tag, C-terminal, kept
# Target: Fascin-1 1-493 (full-length human Fascin-1 WT, untagged) (human, UniProt Q16658)
# Experiment: pull-down; in vitro co-precipitation of recombinant proteins: His-tagged Nbs immobilised on Nickel Sepharose as bait for untagged Fascin-1; SDS-PAGE
# Details: both partners purified
row,binding result,Binder
1,binds,B1
2,binds,B2
3,binds,B3
4,binds,B4
